Results as given in patent US20200181257A1 (Chugai, published 2020).
Read-outs that look alike come from different tables or passages of the source.

T1: human Fcγ receptor hFcgRIIa (H) (human, UniProt P12318 36-217)
T1 construct: also called FcγRIIa (type H); FcγIIA
T1 sequence: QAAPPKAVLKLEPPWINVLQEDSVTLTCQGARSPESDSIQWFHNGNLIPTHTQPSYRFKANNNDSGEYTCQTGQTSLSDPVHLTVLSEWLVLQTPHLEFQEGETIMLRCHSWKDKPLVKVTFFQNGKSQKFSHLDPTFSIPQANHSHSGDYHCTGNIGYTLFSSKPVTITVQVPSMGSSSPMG

T2: human Fcγ receptor hFcgRIIa (R) (human, UniProt P12318 36-217)
T2 construct: also called FcγRIIa (type R); FcγIIA
T2 chain: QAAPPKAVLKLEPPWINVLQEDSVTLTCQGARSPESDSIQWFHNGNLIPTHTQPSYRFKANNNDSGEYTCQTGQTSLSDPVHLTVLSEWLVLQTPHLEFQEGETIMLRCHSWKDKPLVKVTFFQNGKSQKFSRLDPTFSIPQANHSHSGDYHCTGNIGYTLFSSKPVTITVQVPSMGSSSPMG

T3: human Fcγ receptor hFcgRIIb (human, UniProt P31994 43-217, limits assumed)
T3 construct: Construct used in the SPR assay is not described; also called FcγRIIb; FcγIIB
T3 sequence: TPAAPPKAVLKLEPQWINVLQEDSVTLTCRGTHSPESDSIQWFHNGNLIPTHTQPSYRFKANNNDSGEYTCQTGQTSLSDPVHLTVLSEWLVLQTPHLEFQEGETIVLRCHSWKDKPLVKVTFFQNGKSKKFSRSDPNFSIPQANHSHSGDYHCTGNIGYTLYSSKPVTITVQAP


Assays:
Test in all cases: SPR, antibody captured on Protein A
[1] = molecular target: T4, human Fcγ receptor hFcgRIIIa (V) (human, UniProt P08637 17-208)
T4 construct: also called FcγRIIIa allotype V158; FcγIIIA
T4 sequence (P08637 other isoform, or with tags, fused parts or gaps limits assumed): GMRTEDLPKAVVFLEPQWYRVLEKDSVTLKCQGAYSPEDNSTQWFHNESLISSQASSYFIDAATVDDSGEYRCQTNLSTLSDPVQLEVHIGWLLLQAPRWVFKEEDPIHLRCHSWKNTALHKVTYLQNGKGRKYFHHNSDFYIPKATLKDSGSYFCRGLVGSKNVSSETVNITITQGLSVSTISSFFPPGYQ
Protocol: (§1) The CH2 domain, which was modified in this examination, is known to be involved in interaction with several human Fcγ receptors (hereinafter denoted as hFcgRs) which affect effector functions. Therefore, the binding of TS1 and TS19 prepared by using the H chain of anti-IL6R produced in Example 2 to hFcgRs was measured, according to the method described in Reference Example 3.
(§2) Interactions between antibodies and hFcgRs (hFcgRIa, hFcgRIIa(R), hFcgRIIa(H), hFcgRIIb, hFcgRIIIa(F), and hFcgRIIIa(V)) were analyzed using Biacore T100 (GE Healthcare). HBS-EP+(GE Healthcare) was used for the running buffer, and the measurement temperature was set at 25° C. Protein A (Invitrogen) was immobilized by the amino coupling method, and an antibody of interest was captured thereon. Then, hFcγR solutions diluted using the running buffer were injected to allow interaction with the captured antibody at a flow rate of 30 μL/min for five minutes for hFcγRIa, and at a flow rate of 5 μL/min for one minute for the other hFcγRs. […] Since the hFcγR binding level depends on the amount of captured antibodies, the FcgR-binding levels were corrected so that the capture level of each antibody would be 200 RU (resonance unit) for hFcgRIa and 1000 RU (resonance unit) for the other hFcgRs. The captured antibodies were washed by allowing 10 mM glycine-HCl (pH 1.5) to react for 30 seconds at a flow rate of 30 μL/min to recycle the chip for reuse.

[2] = molecular target: T1, human Fcγ receptor hFcgRIIa (H)
Protocol: as §1, §2

[3] = molecular target: T2, human Fcγ receptor hFcgRIIa (R)
Protocol: as §1, §2

[4] = molecular target: T3, human Fcγ receptor hFcgRIIb
Protocol: as §1, §2

[5] = molecular target: T5, human Fcγ receptor hFcgRIa (human, UniProt P12314 16-292, limits assumed)
T5 construct: Construct used in the SPR assay is not described; also called hFcγRIa; FcγI
T5 sequence (P12314 16-292 limits assumed): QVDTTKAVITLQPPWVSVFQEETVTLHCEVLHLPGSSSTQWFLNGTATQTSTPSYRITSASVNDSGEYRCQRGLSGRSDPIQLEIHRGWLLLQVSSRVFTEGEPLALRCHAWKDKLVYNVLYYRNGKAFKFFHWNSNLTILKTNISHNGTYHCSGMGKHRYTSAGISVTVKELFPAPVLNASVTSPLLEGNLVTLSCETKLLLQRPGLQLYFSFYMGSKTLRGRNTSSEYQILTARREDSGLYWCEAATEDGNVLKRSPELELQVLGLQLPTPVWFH
Protocol: as §1, §2

[6] = molecular target: T4, human Fcγ receptor hFcgRIIIa (V); remark: listed apart in the source
Protocol: (§3) Furthermore, binding ability to hFcgRs was measured by the method described in Reference Example 3.
as §2

[7] = molecular target: T1, human Fcγ receptor hFcgRIIa (H); remark: listed apart in the source
Protocol: as §3, §2

[8] = molecular target: T2, human Fcγ receptor hFcgRIIa (R)
Protocol: as §3, §2

[9] = molecular target: T3, human Fcγ receptor hFcgRIIb; remark: listed apart in the source
Protocol: as §3, §2

[10] = molecular target: T5, human Fcγ receptor hFcgRIa; remark: listed apart in the source
Protocol: as §3, §2

Row | Binder | binding relative to G1 (=100) [1] | binding relative to G1 (=100) [2] | binding relative to G1 (=100) [3] | binding relative to G1 (=100) [4] | binding relative to G1 (=100) [5] | binding relative to G1 (=100) [6] | binding relative to G1 (=100) [7] | binding relative to G1 (=100) [8] | binding relative to G1 (=100) [9] | binding relative to G1 (=100) [10]
1 | TS2 (antibody, anti-IL6R IgG1, G1d with V266I/H268Q/E269D/D270E (EU); also called TS02) heavy: QVQLQESGPGLVRPSQTLSLTCTVSGYSITSDHAWSWVRQPPGRGLEWIGYISYSGITTYNPSLKSRVTMLRDTSKNQFSLRLSSVTAADTAVYYCARSLARTTAMDYWGQGSLVTVSSASTKGPSVFPLAPSSKSTSGGTAALGCLVKDYFPEPVTVSWNSGALTSGVHTFPAVLQSSGLYSLSSVVTVPSSSLGTQTYICNVNHKPSNTKVDKKVEPKSCDKTHTCPPCPAPELLGGPSVFLFPPKPKDTLMISRTPEVTCVVVDISQDEPEVKFNWYVDGVEVHNAKTKPREEQYNSTYRVVSVLTVLHQDWLNGKEYKCKVSNKALPAPIEKTISKAKGQPREPQVYTLPPSRDELTKNQVSLTCLVKGFYPSDIAVEWESNGQPENNYKTTPPVLDSDGSFFLYSKLTVDKSRWQQGNVFSCSVMHEALHNHYTQKSLSLSP light: not shown | 130 | 123 | 67.3 | 61.6 | 98.3 | – | – | – | – | –
2 | TS61 (antibody, anti-IL6R IgG1, G1d with G385D/Q386P/N389S (EU)) heavy: QVQLQESGPGLVRPSQTLSLTCTVSGYSITSDHAWSWVRQPPGRGLEWIGYISYSGITTYNPSLKSRVTMLRDTSKNQFSLRLSSVTAADTAVYYCARSLARTTAMDYWGQGSLVTVSSASTKGPSVFPLAPSSKSTSGGTAALGCLVKDYFPEPVTVSWNSGALTSGVHTFPAVLQSSGLYSLSSVVTVPSSSLGTQTYICNVNHKPSNTKVDKKVEPKSCDKTHTCPPCPAPELLGGPSVFLFPPKPKDTLMISRTPEVTCVVVDVSHEDPEVKFNWYVDGVEVHNAKTKPREEQYNSTYRVVSVLTVLHQDWLNGKEYKCKVSNKALPAPIEKTISKAKGQPREPQVYTLPPSRDELTKNQVSLTCLVKGFYPSDIAVEWESNDPPESNYKTTPPVLDSDGSFFLYSKLTVDKSRWQQGNVFSCSVMHEALHNHYTQKSLSLSP light: not shown | – | – | – | – | – | 96.6 | 106 | 106 | 112 | 101
3 | TS13 (antibody, anti-IL6R IgG1, G1d with S267P/H268M/D270F (EU)) heavy: QVQLQESGPGLVRPSQTLSLTCTVSGYSITSDHAWSWVRQPPGRGLEWIGYISYSGITTYNPSLKSRVTMLRDTSKNQFSLRLSSVTAADTAVYYCARSLARTTAMDYWGQGSLVTVSSASTKGPSVFPLAPSSKSTSGGTAALGCLVKDYFPEPVTVSWNSGALTSGVHTFPAVLQSSGLYSLSSVVTVPSSSLGTQTYICNVNHKPSNTKVDKKVEPKSCDKTHTCPPCPAPELLGGPSVFLFPPKPKDTLMISRTPEVTCVVVDVPMEFPEVKFNWYVDGVEVHNAKTKPREEQYNSTYRVVSVLTVLHQDWLNGKEYKCKVSNKALPAPIEKTISKAKGQPREPQVYTLPPSRDELTKNQVSLTCLVKGFYPSDIAVEWESNGQPENNYKTTPPVLDSDGSFFLYSKLTVDKSRWQQGNVFSCSVMHEALHNHYTQKSLSLSP light: not shown | 1.4 | 1.2 | 1.2 | 3.4 | 63 | – | – | – | – | –
4 | TS7 (antibody, anti-IL6R IgG1, G1d with K326S/S324H/A330H (EU); also called TS07) heavy: QVQLQESGPGLVRPSQTLSLTCTVSGYSITSDHAWSWVRQPPGRGLEWIGYISYSGITTYNPSLKSRVTMLRDTSKNQFSLRLSSVTAADTAVYYCARSLARTTAMDYWGQGSLVTVSSASTKGPSVFPLAPSSKSTSGGTAALGCLVKDYFPEPVTVSWNSGALTSGVHTFPAVLQSSGLYSLSSVVTVPSSSLGTQTYICNVNHKPSNTKVDKKVEPKSCDKTHTCPPCPAPELLGGPSVFLFPPKPKDTLMISRTPEVTCVVVDVSHEDPEVKFNWYVDGVEVHNAKTKPREEQYNSTYRVVSVLTVLHQDWLNGKEYKCKVHNSALPHPIEKTISKAKGQPREPQVYTLPPSRDELTKNQVSLTCLVKGFYPSDIAVEWESNGQPENNYKTTPPVLDSDGSFFLYSKLTVDKSRWQQGNVFSCSVMHEALHNHYTQKSLSLSP light: not shown | 86.2 | – | 117 | 126 | 99.8 | – | – | – | – | –
